Experimental data as given in IntAct's records for PubMed 15983381.

B1: Parkinson disease protein 7 (Homo sapiens), Q99497 (parent)
chain: MASKRALVILAKGAEEMETVIPVDVMRRAGIKVTVAGLAGKDPVQCSRDVVICPDASLEDAKKEGPYDVVVLPGGNLGAQNLSESAAVKEILKEQENRKGLIAAICAGPTALLAHEIGFGSKVTTHPLAKDKMMNGGHYTYSENRVEKDGLILTSRGPGTSFEFALAIVEALNGKEVAAQVKAPLVLKD

Variants of: B1
Conditions: with daxx_human DAXX

Variant | effect of a mutation on the interaction
MASKRALVILAKGAEEMETVIPVDVMRRAGIKVTVAGLAGKDPVQCSRDVVICPDASLEDAKKEGPYDVVVLPGGNLGAQNLSESAAVKEILKEQENRKGLIAAICAGPTALLAHEIGFGSKVTTHPLAKDKMMNGGHYTYSENRVEKDGLILTSRGPGTSFEFAPAIVEALNGKEVAAQVKAPLVLKD [L166P] | decreasing interaction
